According to US12508311B2, “Fusion protein, and preparation method and use thereof” (SUN YAT-SEN UNIVERSITY, priority 2021, dated 2025):
Positions count from the first letter of the chain named.

B1: TKD: fusion protein: tumour-cell-penetrating peptide BR2, anti-KRas nanobody VHH and lysosome recognition peptide CTM; SEQ ID NO.4 (protein)
chain: RAGLQFPVGRLLRRLLRDVQLQESGGGLVQAGGSLRLSCVASGRTFSTYPTGWFRQAPGKEREFVARINLSGGITNYADSVKGRFTISRDNAKNTVYLQMNSLKPEDTAVYYCGGGSTTWAGGIPTNFDYWGQGTQVTVSSGRKFERQKILDQRFFE
B2: TKDm: control molecule of TKD with mutated CTM fragment (CTMmt) which could not be recognized by a lysosome; SEQ ID NO.5 (protein)
chain: B1 chain with Q148A, Q153A

How the values were obtained:
[1] = target: T1, KRas protein (Homo sapiens, UniProt P01116); test: ELISA of binding level to the KRas protein in vitro; settings: coated at 1 ng/μL, KRas 6.25-100 μg, compared with the control group
T1 construct: made in house
T1 sequence (P01116 whole entry): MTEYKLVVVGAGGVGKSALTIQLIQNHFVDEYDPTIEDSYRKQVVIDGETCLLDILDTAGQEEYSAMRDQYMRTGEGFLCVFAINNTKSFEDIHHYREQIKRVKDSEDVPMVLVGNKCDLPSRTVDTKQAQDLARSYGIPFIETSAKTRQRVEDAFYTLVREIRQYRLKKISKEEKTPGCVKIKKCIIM
Experimental: 100 μL of coating solution was added into each well of 96-well ELISA plate to coat overnight at 4° C. • (3) Blocking: the ELISA plate was cleaned with a phosphate buffer solution (PBS) (PBS formula: 4 g of NaCl, 0.1 g of KCl, 1.815 g of disodium hydrogen phosphate dodecahydrate, and 0.12 g of […], dissolved in 400 mL of ultrapure water, with a constant volume of 500 mL for use) for 5 minutes each time. 300 μL of 5% (w/v) bovine serum albumin was added into each well, and blocked at 37° C. for 2 hours. • (4) Adding of the purified protein KRas: 6.25 μg, 12.5 μg, 25 μg, 50 μg and 100 μg of purified protein were respectively pre-mixed and diluted in 200 μL of PBS, and the diluted KRas protein was added into the wells in sequence, and slowly shaken at the room temperature for 5 hours. […] Main steps of the example were as follows: • (1) Coupling of ligand: the target coupling amount was calculated according to the following formula: […]

[2] = target: T1, KRas protein; test: SPR binding capacity experiment (BiacoreT200); settings: in vitro; for binding capacity with the KRas protein (SPR): molecule coupled on CM5 chip, KRas flowing
Experimental: 100 μL of coating solution was added into each well of 96-well ELISA plate to coat overnight at 4° C. • (3) Blocking: the ELISA plate was cleaned with a phosphate buffer solution (PBS) (PBS formula: 4 g of NaCl, 0.1 g of KCl, 1.815 g of disodium hydrogen phosphate dodecahydrate, and 0.12 g of […], dissolved in 400 mL of ultrapure water, with a constant volume of 500 mL for use) for 5 minutes each time. 300 μL of 5% (w/v) bovine serum albumin was added into each well, and blocked at 37° C. for 2 hours. • (4) Adding of the purified protein KRas: 6.25 μg, 12.5 μg, 25 μg, 50 μg and 100 μg of purified protein were respectively pre-mixed and diluted in 200 μL of PBS, and the diluted KRas protein was added into the wells in sequence, and slowly shaken at the room temperature for 5 hours. […] Main steps of the example were as follows: • (1) Coupling of ligand: the target coupling amount was calculated according to the following formula:
[formula] wherein Rmax was the maximum binding capacity on the chip surface, and 100 RU was usually substituted in a protein test. […] Through the preconcentration experiment, it was determined that pH 5.0 was the optimal coupling condition. […] In this experiment, aimforimmobilized level was selected, and the calculated 110RU was inputted in target level. […]

[3] = system: HCT116 (KRas G13D); test: CCK-8 cell proliferation experiment, HCT116; settings: 10 and 20 μg/mL, 24 hours
From the text: CCK-8 was a highly sensitive and non-radioactive colorimetric method for determining the number of living cells in the cell proliferation or toxicity test.

Row | Molecule | interaction with the KRas protein (ELISA, OD450-OD630) [1] | level of binding between TKD and the KRas protein (SPR) [2] | binding capacity with the KRas protein (SPR) [2] | inhibition of cell growth (CCK-8) [3]
1 | B1 | had a stronger interaction with the KRas protein | reached the level of antigen-antibody binding (nM) | had a strong binding capacity with the KRas protein in vitro | could significantly inhibit growth
2 | B2 | had a stronger interaction with the KRas protein | – | had a strong binding capacity with the KRas protein in vitro | could not achieve the same effect
